B1: Thioredoxin, P08058 (parent)
chain: MSTVPVTDATFDTEVRKSDVPVVVDFWAEWCGPCRQIGPALEELSKEYAGKVKIVKVNVDENPESPAMLGVRGIPALFLFKNGQVVSNKVGAAPKAALATWIASAL

This data set covers variants of B1. The following applies: Cereibacter sphaeroides, pH 7.4, 23 °C, Urea, Fluorescence, whole UniProt chain shown.

For F26Y, where the note is “Potassium phosphate 20mM”, the unfolding free energy is 7.89 kcal/mol.
As for F26L, where the note is “Potassium phosphate 20 mM”, the “ddG of mutation (higher = less stable)” value was found to be 3.4 kcal/mol and the unfolding free energy is 4.8 kcal/mol. Besides, the unfolding free energy (Potassium phosphate 20mM) is 4.78 kcal/mol.
Consider F26I, for which, where the note is “Potassium phosphate 20mM”, the unfolding free energy stood at 4.3 kcal/mol.
On to F26V, for which, where the note is “Potassium phosphate 20 mM”, the “ddG of mutation (higher = less stable)” value stood at 4.8 kcal/mol. The unfolding free energy (Potassium phosphate 20 mM) was determined as 3.4 kcal/mol and the unfolding free energy (Potassium phosphate 20mM) turned out to be 3.35 kcal/mol.
